Publication PMC9616523

Experiments:
human FcγRI (human) = human FcγRI (human) (UniProt P12314); assay: SPR; Biacore T200; hFcγRI captured on an NTA chip loaded with Ni2+ (≈200 RU); AvFc flowed over, 5 concentrations from 324 nM in 1:3 dilutions; regeneration 350 mM EDTA; 1:1 binding model
human FcγRIIIa (human) [1] = molecular target: human FcγRIIIa (human) (UniProt P08637)
human FcγRIIIa (human) [2] = molecular target: human FcγRIIIa (human) (UniProt P08637); assay: SPR; Biacore T200; receptor captured by its 6xHis tag on an anti‐6xHis antibody amine‐coupled to a CM5 chip; AvFc variants flowed over, 5 concentrations from 2 μM in 1:2 dilutions, 30 μL/min, 240 s association, 600 s dissociation; 1:1 binding model
mouse FcγRIV (mouse) = assay: as above
Sequence of mouse FcγRIV (mouse) (A0A0B4J1G0 21-203): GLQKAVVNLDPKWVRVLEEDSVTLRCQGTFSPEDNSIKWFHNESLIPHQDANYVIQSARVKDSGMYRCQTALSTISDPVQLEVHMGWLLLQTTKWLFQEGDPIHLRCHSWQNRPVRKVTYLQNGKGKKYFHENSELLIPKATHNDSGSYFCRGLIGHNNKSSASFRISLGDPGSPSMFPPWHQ

Sequence of human FcγRI (human) (P12314 16-292): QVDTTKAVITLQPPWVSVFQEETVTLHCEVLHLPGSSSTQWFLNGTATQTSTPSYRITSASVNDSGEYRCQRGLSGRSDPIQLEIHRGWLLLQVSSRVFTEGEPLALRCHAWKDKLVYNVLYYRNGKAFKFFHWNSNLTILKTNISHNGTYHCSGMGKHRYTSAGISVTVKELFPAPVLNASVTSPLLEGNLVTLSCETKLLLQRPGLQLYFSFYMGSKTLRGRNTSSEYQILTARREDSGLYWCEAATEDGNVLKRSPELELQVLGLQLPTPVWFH

Substance | fold increase in affinity over AvFc^WT (human FcγRI (human)) [fold] | ADCC reporter assay: luciferase in Jurkat effector cells expressing hFcγRIIIa, B16F10 target cells, AvFc 650 nM to 8.32 pM; EC50 (human FcγRIIIa (human) [1]) [nM] | ADCC reporter assay: luciferase in Jurkat effector cells expressing hFcγRIIIa, B16F10 target cells, AvFc 650 nM to 8.32 pM; highest luciferase induction (human FcγRIIIa (human) [1]) [fold] | fold increase in affinity over AvFc^WT (human FcγRIIIa (human) [2]) [fold] | fold increase in affinity over AvFc^WT (mouse FcγRIV (mouse)) [fold]
Avaren‐Fc expressed in glycoengineered ΔXylT/ΔFucT N. benthamiana (AvFc^ΔXF) (Fc fusion) | 1.9 | 2.75 | 5.5 | 3.8 | 5.5
Avaren‐Fc expressed in wild‐type N. benthamiana (AvFc^WT) (Fc fusion) |  | 13.8 | 2.9 |  | 
